Test results published in patent US20260029420A1, “ANTI-CB2 ANTIBODIES AND THEIR USE IN A FLOW CYTOMETRY ASSAY TO MEASURE CELL SURFACE CB2 EXPRESSION” (Hoffmann-La Roche Inc., priority 2022, published 2026).

Tests used:
Assay type in all cases: binding
CHO-A2 mCB2 = biological target: T1, CHO-A2 mCB2 (Mus musculus, UniProt P47936); assay: Western blot of cell lysates; parameters: key: “−” no signal; “+”-“+++++” signal intensity; “+”-“+++++” signal intensity; “+”-“+++++” signal intensity; “+”-“+++++” signal intensity; “+”-“+++++” signal intensity; details: CHO-A2 mCB2 lysate
T1 construct: expressed in transfected cells
T1 sequence (P47936 whole entry): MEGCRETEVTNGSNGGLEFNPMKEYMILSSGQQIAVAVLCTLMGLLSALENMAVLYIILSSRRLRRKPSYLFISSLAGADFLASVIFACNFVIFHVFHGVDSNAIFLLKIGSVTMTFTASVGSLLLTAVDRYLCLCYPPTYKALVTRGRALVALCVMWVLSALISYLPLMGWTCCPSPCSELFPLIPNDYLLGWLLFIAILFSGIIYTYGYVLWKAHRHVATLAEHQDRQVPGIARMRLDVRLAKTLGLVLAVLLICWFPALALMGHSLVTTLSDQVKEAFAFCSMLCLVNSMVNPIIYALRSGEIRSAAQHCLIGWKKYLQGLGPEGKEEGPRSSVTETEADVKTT
Method: (§1) The positive clones (Table 1) were further characterized by immunofluorescence (IF; Table 2), Western Blot (Table 3, 1) and Immune precipitation (Table 4, 2) on full length hCB2, hCB1, mCB2 stable-transfected CHO-cell lines in addition to the 2 pANITA constructs.
(§2) For Western blot analysis, cells were collected using enzyme free dissociation buffer (Cell dissociation buffer enzyme-free Hanks'-based, Gibco), and washed two times with PBS. To prepare cell lysate, 10^6 cells were lysed with 0.1 ml of lysis buffer (1% NP40, 10% glycerol, 2 mM EDTA, 137 mM NaCl, 20 mM TrisHCl, pH8, Protease Inhibitors) for 10 min on ice. The lysate was cleared by centrifugation at 20′000 g for 5 min. For SDS-PAGE cell lysate was resolved on precast 4-12% gradient gels (NuPAGE® Novex 4-12% Bis-Tris Gel, Invitrogen) with MES running buffer according to the manufacturer's directions. The separation of proteins was visualized by Colloidal Blue staining. The proteins were electrophoretically transferred to nitrocellulose membrane using a dry-blotting system (iBlot, Invitrogen). After blocking the membrane for 16 h in blocking buffer (5% Milk in PBS) at 4° C., specific proteins were detected with appropriate dilutions of mAbs in blocking buffer for 1 h at approximately 20° C. […]

CHODukx CRE hCB2 Cl.90 = biological target: T2, CHODukx CRE hCB2 Cl.90 (Homo sapiens, UniProt P34972); assay: Western blot of cell lysates; parameters: key: “−” no signal; “+”-“+++++” signal intensity; “+”-“+++++” signal intensity; “+”-“+++++” signal intensity; “+”-“+++++” signal intensity; “+”-“+++++” signal intensity; details: CHODukx CRE hCB2 Cl.90 lysate
T2 construct: expressed in transfected cells
T2 sequence (P34972 whole entry): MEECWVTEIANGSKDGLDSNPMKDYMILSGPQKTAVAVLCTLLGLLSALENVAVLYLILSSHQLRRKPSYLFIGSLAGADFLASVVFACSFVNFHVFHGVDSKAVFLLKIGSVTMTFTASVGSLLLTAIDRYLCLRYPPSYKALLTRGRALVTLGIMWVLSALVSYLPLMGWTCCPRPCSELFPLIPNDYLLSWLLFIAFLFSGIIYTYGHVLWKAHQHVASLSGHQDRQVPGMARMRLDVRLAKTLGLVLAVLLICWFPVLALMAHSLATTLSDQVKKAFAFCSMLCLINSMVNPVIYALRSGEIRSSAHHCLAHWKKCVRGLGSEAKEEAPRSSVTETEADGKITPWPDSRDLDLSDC
Method: as §1, §2

pANITA3.1 mCB2 (JB176) [1] = biological target: T3, pANITA3.1 mCB2 (JB176) (Mus musculus, UniProt P47936); assay: Western blot of cell lysates; parameters: key to Western Blot signal intensity: “−” no signal; “+”-“+++++” signal intensity; “+”-“+++++” signal intensity; “+”-“+++++” signal intensity; “+”-“+++++” signal intensity; “+”-“+++++” signal intensity
T3 construct: expressed in transfected cells; host or cells: HEK293
T3 sequence (P47936 with tags, fused parts or gaps): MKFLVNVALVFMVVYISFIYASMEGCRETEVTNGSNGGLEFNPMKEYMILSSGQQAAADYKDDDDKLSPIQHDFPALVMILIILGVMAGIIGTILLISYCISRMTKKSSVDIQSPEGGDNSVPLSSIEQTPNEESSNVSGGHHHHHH
Method: as §1
(§3) For Western blot analysis, cells were collected using enzyme free dissociation buffer (Cell dissociation buffer enzyme-free Hanks'-based, Gibco), and washed two times with PBS. To prepare cell lysate, 10^6 cells were lysed with 0.1 ml of lysis buffer (1% NP40, 10% glycerol, 2 mM EDTA, 137 mM NaCl, 20 mM TrisHCl, pH8, Protease Inhibitors) for 10 min on ice. The lysate was cleared by centrifugation at 20′000 g for 5 min. For SDS-PAGE cell lysate was resolved on precast 4-12% gradient gels (NuPAGE® Novex 4-12% Bis-Tris Gel, Invitrogen) with MES running buffer according to the manufacturer's directions. The separation of proteins was visualized by Colloidal Blue staining. The proteins were electrophoretically transferred to nitrocellulose membrane using a dry-blotting system (iBlot, Invitrogen). After blocking the membrane for 16 h in blocking buffer (5% Milk in PBS) at 4° C., specific proteins were detected with appropriate dilutions of mAbs in blocking buffer for 1 h at approximately 20° C. The membrane was then washed four times for 5 minutes in blocking buffer and incubated with horseradish peroxidase conjugated anti-mouse IgG mAb (GAM/IgG (g-chain)/HRP, Sigma, A9917) diluted 1:10'000 in blocking buffer at approximately 20° C. for 1 h. After washing again, blots were developed using ECL Western blotting detection reagents (ECL Western Blotting Substrate, Pierce) to visualize bands.
(§4) Expression of recombinant proteins in pANITA3.1 transfected cells was confirmed by Western blot analysis using anti-His tag antibodies. Cells expressing rat Glucose-dependent insulinotropic polypeptide receptor (GIPR), also a G-protein coupled receptor, were used as a negative control.

pANITA3.1 hCB2 (JB175) [2] = biological target: T4, pANITA3.1 hCB2 (JB175) (Homo sapiens, UniProt P34972); assay: Western blot of cell lysates; parameters: key to Western Blot signal intensity: “−” no signal; “+”-“+++++” signal intensity; “+”-“+++++” signal intensity; “+”-“+++++” signal intensity; “+”-“+++++” signal intensity; “+”-“+++++” signal intensity
T4 construct: expressed in transfected cells; host or cells: HEK293
T4 sequence (P34972 with tags, fused parts or gaps): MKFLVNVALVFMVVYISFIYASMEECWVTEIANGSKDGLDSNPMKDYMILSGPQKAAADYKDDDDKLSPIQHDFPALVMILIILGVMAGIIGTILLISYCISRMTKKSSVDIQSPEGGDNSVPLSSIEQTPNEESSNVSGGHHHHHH
Method: as §1, §3, §4

pANITA3.1 hCB2 (JB175) [3] = biological target: T4, pANITA3.1 hCB2 (JB175); assay: Immunoprecipitation from whole cell lysates; parameters: key to Immunoprecipitation signal intensity: “−” no signal; “+”-“++++” signal intensity; “+”-“++++” signal intensity; “+”-“++++” signal intensity; “+”-“++++” signal intensity
Method: as §1
(§5) For immunoprecipitation (IP), whole cell lysates were incubated with the respective antibodies. IP was performed according to established protocols and subsequent western blot as described herein above.

CHODukx CRE hCB1 Cl.20 = biological target: T5, CHODukx CRE hCB1 Cl.20 (Homo sapiens, UniProt P21554); assay: Western blot of cell lysates; parameters: key to Western Blot signal intensity: “−” no signal; “+”-“+++++” signal intensity; “+”-“+++++” signal intensity; “+”-“+++++” signal intensity; “+”-“+++++” signal intensity; “+”-“+++++” signal intensity
T5 construct: expressed in transfected cells
T5 sequence (P21554 whole entry): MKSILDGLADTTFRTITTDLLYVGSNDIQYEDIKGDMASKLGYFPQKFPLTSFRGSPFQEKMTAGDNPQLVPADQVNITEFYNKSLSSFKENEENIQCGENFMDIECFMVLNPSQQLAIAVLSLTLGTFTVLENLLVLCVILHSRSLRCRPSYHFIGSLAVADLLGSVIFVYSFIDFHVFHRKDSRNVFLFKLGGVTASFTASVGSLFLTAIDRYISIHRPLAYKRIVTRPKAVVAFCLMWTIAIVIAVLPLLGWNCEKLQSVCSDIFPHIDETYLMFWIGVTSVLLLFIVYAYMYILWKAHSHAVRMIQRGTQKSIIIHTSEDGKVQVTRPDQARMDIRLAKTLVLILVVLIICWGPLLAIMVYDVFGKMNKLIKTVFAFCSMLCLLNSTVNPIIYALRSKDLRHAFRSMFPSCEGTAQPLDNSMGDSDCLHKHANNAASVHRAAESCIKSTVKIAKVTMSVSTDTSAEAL
Method: as §1, §2

pANITA3.1 mCB2 (JB176) [4] = biological target: T3, pANITA3.1 mCB2 (JB176); assay: Immunoprecipitation from whole cell lysates; parameters: key to Immunoprecipitation signal intensity: “−” no signal; “+”-“+++++” signal intensity; “+”-“+++++” signal intensity; “+”-“+++++” signal intensity; “+”-“+++++” signal intensity; “+”-“+++++” signal intensity
Method: as §1, §5

B1: hCB2-1/622: murine IgG3 monoclonal anti-human CB2 antibody, VH SEQ ID NO: 1, VL SEQ ID NO: 2, HC SEQ ID NO: 3, LC SEQ ID NO: 4 (antibody)
heavy: EVQLQQSGPELVKPGASVKISCKTSGYTFTEYTMHWVRQSHGKSLEWIGGIDRYNGDTYYNQKFKDKATLTVDRSSSTAYMELRSLTSEDSAVYFCARNGAMDYWGQGISVTVSSATTTAPSVYPLVPGCSDTSGSSVTLGCLVKGYFPEPVTVKWNYGALSSGVRTVSSVLQSGFYSLSSLVTVPSSTWPSQTVICNVAHPASKTELIKRIEPRIPKPSTPPGSSCPPGNILGGPSVFIFPPKPKDALMISLTPKVTCVVVDVSEDDPDVHVSWFVDNKEVHTAWTQPREAQYNSTFRVVSALPIQHQDWMRGKEFKCKVNNKALPAPIERTISKPKGRAQTPQVYTIPPPREQMSKKKVSLTCLVTNFFSEAISVEWERNGELEQDYKNTPPILDSDGTYFLYSKLTVDTDSWLQGEIFTCSVVHEALHNHHTQKNLSRSPGK
light: DVVMTQTPLSLPVSLGDQASISCRSSQSLVHSNGNTYLHWFLQKPGQSPKLLIYKVSIRFSGVPDRFSGSGSGTDFTLKISRVEAEDLGVYFCSQSTHVPPLTFGAGTKLELKRADAAPTVSIFPPSSEQLTSGGASVVCFLNNFYPKDINVKWKIDGSERQNGVLNSWTDQDSKDSTYSMSSTLTLTKDEYERHNSYTCEATHKTSTSPIVKSFNRNEC
CHO-A2 mCB2
  Western Blot signal intensity: −
CHODukx CRE hCB2 Cl.90
  Western Blot signal intensity: −
pANITA3.1 mCB2 (JB176) [1]; mCB2
  Western blot detection: no mCB2, hCB1 or rat GIPR was detected
pANITA3.1 mCB2 (JB176) [1]; pANITA3.1 mCB2 (JB176) lysate
  Western Blot signal intensity: −
pANITA3.1 hCB2 (JB175) [2]; hCB2
  Western blot detection: distinct band
pANITA3.1 hCB2 (JB175) [2]; pANITA3.1 hCB2 (JB175) lysate
  Western Blot signal intensity: +++
pANITA3.1 hCB2 (JB175) [3]; hCB2
  immunoprecipitation binding: specifically binds
pANITA3.1 hCB2 (JB175) [3]; pANITA3.1 hCB2 (JB175) lysate
  Immunoprecipitation signal intensity: ++++
CHODukx CRE hCB1 Cl.20; CHODukx CRE hCB1 Cl.20 lysate
  Western Blot signal intensity: −
CHODukx CRE hCB1 Cl.20; hCB1
  Western blot detection: no mCB2, hCB1 or rat GIPR was detected
pANITA3.1 mCB2 (JB176) [4]; mCB2
  immunoprecipitation cross reactivity: no cross reactivity
pANITA3.1 mCB2 (JB176) [4]; pANITA3.1 mCB2 (JB176) lysate
  Immunoprecipitation signal intensity: −
